Reference: paper PMC8376870 (2021)

Biological target: GST-G511-V540 (TRPV6 S5 fragment) (Homo sapiens (Human), UniProt Q9H1D0)
Assay: in vitro pull-down (GST/His-MBP) with western blot

Sequence of GST-G511-V540 (TRPV6 S5 fragment) (Q9H1D0 511-540): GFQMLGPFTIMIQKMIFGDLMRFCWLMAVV

B1: His-MBP-A603-L632 (TRPV6 S6 fragment) (protein)
chain: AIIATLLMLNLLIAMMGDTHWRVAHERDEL
  binding result: binds
